Laboratory results taken from PMC12704761, “RAD51AP1 is a versatile RAD51 modulator” (Proceedings of the National Academy of Sciences of the …, 2025).
One block for each binder: values may come before it.

B1: RAD51 recombinase (natural protein)
chain: MAMQMQLEANADTSVEEESFGPQPISRLEQCGINANDVKKLEEAGFHTVEAVAYAPKKELINIKGISEAKADKILAEAAKLVPMGFTTATEFHQRRSEIIQITTGSKELDKLLQGGIETGSITEMFGEFRTGKTQICHTLAVTCQLPIDRGGGEGKAMYIDTEGTFRPERLLAVAERYGLSGSDVLDNVAYARAFNTDHQTQLLYQASAMMVESRYALLIVDSATALYRTDYSGRGELSARQMHLARFLRMLLRLADEFGVAVVITNQVVAQVDGAAMFAADPKKPIGGNIIAHASTTRLYLRKGRGETRICKIYDSPCLPEAEAMFAINADGVGDAKD
notes: RAD51 recombinase, wild type; expressed from the pCH1-derived plasmid pJ9; In the cryo-EM samples it stood as a filament on ssDNA with Ca2+-ATP, Mg2+-ATP or Mg2+-ADP; the introduction speaks of the human genome and the discussion sets 'mouse proteins' of earlier work apart; source: E. coli BL21 (DE3), coexpressed with His-MBP-BRC4 and GroEL, purified (HisTrap, HiTrap Heparin, HiTrap Q)

Legend:
[1] = biological target: T1, RAD51AP1 Site-N mutant, full-length (UniProt Q96B01 1-352, K300 to alanine | K303 to alanine | W304 to alanine | P306 to alanine | P307 to …); assay: pull-down; His-tagged full-length RAD51AP1 (1 µM) immobilised on magnetic cobalt resin, RAD51 (1 µM) in pull-down buffer with ATP and Mg2+, 37 °C, 5 min; SDS-PAGE of supernatant and eluate; settings: both partners purified
T1 construct: RAD51AP1 with five conserved Site-N residues (K300, K303, W304, P306, P307) mutated to alanine; source: expressed from a pET28 vector, purified (HisTrap, HiTrap Heparin, HiTrap Q, gel filtration); not shown: His6, C-terminal, kept
T1 sequence (looked up): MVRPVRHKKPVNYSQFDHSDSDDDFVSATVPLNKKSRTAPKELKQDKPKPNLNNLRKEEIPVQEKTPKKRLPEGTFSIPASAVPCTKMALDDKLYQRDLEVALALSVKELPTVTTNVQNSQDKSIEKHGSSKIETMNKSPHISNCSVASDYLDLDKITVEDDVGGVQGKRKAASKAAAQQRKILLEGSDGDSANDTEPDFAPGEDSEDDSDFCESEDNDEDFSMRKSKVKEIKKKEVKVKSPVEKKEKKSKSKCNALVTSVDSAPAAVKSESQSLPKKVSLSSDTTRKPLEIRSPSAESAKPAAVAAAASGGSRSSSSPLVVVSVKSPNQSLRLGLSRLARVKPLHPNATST

[2] = biological target: T2, RAD51AP1 (RAD51 associated protein 1), full-length wild type (UniProt Q96B01 1-352); assay: BLI; RAD51AP1 with C-terminal hexahistidine tag on nickel-NTA biosensors, RAD51 2.5 µM to 39 nM, Octet Red, 25 °C, Kd from response against concentration, 1:1 model; settings: both partners purified
T2 construct: RAD51AP1, synthetic gene from Invitrogen; printed residue numbers (H346); One of PDB 9QN8, 9QNA, 9QNB, 9QNC holds its modelled residues; Detailed protocols are in SI Appendix, Supplementary Methods; also called WT; source: expressed from a pET28 vector, purified (HisTrap, HiTrap Heparin, HiTrap Q, gel filtration); not shown: His6, C-terminal, kept
T2 sequence (looked up): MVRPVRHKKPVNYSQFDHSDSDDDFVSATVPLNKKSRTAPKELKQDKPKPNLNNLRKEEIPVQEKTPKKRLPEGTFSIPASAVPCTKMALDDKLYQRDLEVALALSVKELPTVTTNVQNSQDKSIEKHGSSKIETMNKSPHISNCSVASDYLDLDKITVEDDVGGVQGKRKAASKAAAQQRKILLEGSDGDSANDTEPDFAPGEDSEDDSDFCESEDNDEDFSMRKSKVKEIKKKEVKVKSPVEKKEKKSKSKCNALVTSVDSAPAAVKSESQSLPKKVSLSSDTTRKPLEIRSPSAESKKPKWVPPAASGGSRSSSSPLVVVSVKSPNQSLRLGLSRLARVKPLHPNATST

[3] = biological target: T3, RAD51AP1 Site-NC double mutant, full-length (UniProt Q96B01 1-352, K300 to alanine | K303 to alanine | W304 to alanine | P306 to alanine | P307 to …); assay: as above; settings: both partners purified
T3 construct: RAD51AP1 in which both Site-N (K300, K303, W304, P306, P307 to alanine) and Site-C (H346A) are mutated; also called Site-N and Site-C double mutant; source: expressed from a pET28 vector, purified (HisTrap, HiTrap Heparin, HiTrap Q, gel filtration); not shown: His6, C-terminal, kept
T3 sequence (looked up): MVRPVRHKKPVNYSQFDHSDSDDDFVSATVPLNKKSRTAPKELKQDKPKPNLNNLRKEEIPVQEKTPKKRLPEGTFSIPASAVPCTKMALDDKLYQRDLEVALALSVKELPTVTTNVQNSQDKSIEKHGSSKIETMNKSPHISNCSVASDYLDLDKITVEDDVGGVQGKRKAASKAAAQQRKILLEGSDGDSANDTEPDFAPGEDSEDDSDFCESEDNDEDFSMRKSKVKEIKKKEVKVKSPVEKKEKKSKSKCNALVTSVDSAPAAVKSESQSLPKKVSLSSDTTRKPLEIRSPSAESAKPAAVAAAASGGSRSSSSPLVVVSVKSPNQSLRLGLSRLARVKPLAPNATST

[4] = biological target: T4, RAD51AP1-H346A (Site-C mutant), full-length (UniProt Q96B01 1-352, H346A); assay: as above; settings: both partners purified
T4 construct: RAD51AP1 with H346A; source: expressed from a pET28 vector, purified (HisTrap, HiTrap Heparin, HiTrap Q, gel filtration); not shown: His6, C-terminal, kept
T4 sequence (looked up): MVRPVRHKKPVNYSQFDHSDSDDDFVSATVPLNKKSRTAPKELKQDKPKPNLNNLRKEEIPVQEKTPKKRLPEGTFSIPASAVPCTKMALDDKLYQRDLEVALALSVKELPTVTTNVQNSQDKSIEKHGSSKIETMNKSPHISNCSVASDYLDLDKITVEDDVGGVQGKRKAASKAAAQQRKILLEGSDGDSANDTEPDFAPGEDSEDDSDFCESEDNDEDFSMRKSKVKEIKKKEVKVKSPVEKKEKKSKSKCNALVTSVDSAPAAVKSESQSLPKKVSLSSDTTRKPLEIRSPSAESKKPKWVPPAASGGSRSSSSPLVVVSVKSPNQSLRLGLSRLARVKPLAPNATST

[5] = biological target: B1; assay: cryo-EM structure; RAD51-ssDNA filaments formed with Mg2+-ATP (7 µM RAD51) mixed with C29 (28 µM); single particle analysis, 3.0 Å; settings: both partners purified
[6] = biological target: T5, RAD51 recombinase, Q06609; assay: pull-down; settings: chain shown with the change; n = 3; parent: est. 54; read off a plot
T5 chain: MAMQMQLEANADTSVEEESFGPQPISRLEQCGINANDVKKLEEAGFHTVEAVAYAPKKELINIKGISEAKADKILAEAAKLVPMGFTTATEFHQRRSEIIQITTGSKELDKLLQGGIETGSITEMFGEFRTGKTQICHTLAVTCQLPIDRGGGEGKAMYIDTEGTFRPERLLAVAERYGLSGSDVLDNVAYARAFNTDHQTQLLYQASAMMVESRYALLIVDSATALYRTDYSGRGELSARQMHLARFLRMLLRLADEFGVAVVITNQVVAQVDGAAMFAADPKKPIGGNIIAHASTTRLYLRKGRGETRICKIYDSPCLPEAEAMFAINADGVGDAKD

Binder: B1
binding result [1]: binds | Kd [2]: ~600 nM | fold reduction in affinity against wild-type RAD51AP1 [3]: ~4 fold | fold decrease in binding affinity against wild-type RAD51AP1 [4]: ~2.5 fold

binding result [5]: binds
B2: RAD51AP1 C29 (domain or fragment, UniProt Q96B01 324-352, looked up)
chain: SVKSPNQSLRLGLSRLARVKPLHPNATST
notes: RAD51AP1, C-terminal 29 residues; lacks Site-N, contains Site-M and Site-C; One of PDB 9QN8, 9QNA, 9QNB, 9QNC holds it; also called RAD51AP1 C29 fragment; RAD51AP1 C-terminal domain

response [6]: 60%
B3: RAD51AP1 C59, wild type K300A; K303A; W304A; P306A; P307A (protein)
chain: SPSAESAKPAAVAAAASGGSRSSSSPLVVVSVKSPNQSLRLGLSRLARVKPLHPNATST
